Assay [1] addresses T1, biotinylated recombinant human FAP (human, UniProt Q12884 27-760, biotinylated (site not stated)).
T1 construct: also called biotinylated human FAP; recombinant huFAP
Description: SPR (Biacore), Fab. On the technique in general: In SPR one partner is held on a chip, and binding of the other changes the refractive index at the surface.

Assay [2] addresses T2, human fibroblast activation protein (huFAP) expressed on cells (human, UniProt Q12884 1-760).
T2 construct: UniProt Q12884 printed; also called human FAP; hFAP
Description: flow cytometry, NIH/3T3-huFAP cells. On the technique in general: In flow cytometry, cells or beads pass a laser one at a time.
Description: (§1) Plates were centrifuged 5 minutes at 1700 rpm and supernatants were flicked off. […] Afterwards the cells were washed three times with 200 μL 4° C. cold FACS buffer. […] Data analysis was performed using the FlowJo version 10 software (FlowJo LLC).

The target of assay [3] is T3, human CD40 expressed on cells (human, UniProt P25942 21-277).
T3 construct: Endogenous CD40 on Raji, Daudi and primary human B cells; human CD40 on DCs of huCD40tg mice; also called huCD40; Raji cells
As to the kind of experiment: flow cytometry, primary human B cells.
Description: as §1

Assay [4] has as its target T2, human fibroblast activation protein …. Description: flow cytometry competition on huFAP-transfected HEK cells; unlabelled antibody titrated 0.2-60 µg/ml, then AF647-labelled 4B9 (20 µg/ml) as competitor.
Description: Briefly, the target cells were harvested with Cell Dissociation buffer, washed with FACS Buffer (PBS+2% FCS+5 mM EDTA+0.25% sodium acide) and seeded into 96-U bottom plates (1×10^5 cells/well).
Assay [5] has as its target T1, biotinylated recombinant human FAP. As to the kind of experiment: SPR (Biacore), biotinylated huFAP immobilized, Fab analyte.
Description: As running and dilution buffer, HBS-P+ (10 mM HEPES, 150 mM NaCl pH 7.4, 0.05% Surfactant P20) was used. A dilution series of anti-huFAP Fabs (3.7-300 nM, 1:3 dilution) was successively injected for 120s each, dissociation was monitored for 1800s at a flow rate of 30 μl/min (single cycle kinetics). The surface was regenerated by injecting 6 M guanidine-HCl, 0.25 M NaOH for 120 s. […] Curve fitting was performed using the 1:1 Langmuir binding model within the Biacore evaluation software.

B1: P1AE1690_Fab (humanized clone 212, VH1G2a/VL1G1a) (Fab, V domains shown)
VH: QVQLVQSGAEVKKPGASVKVSCKASGYTLTDYNMDWVRQAPGKSLEWIGDIYPNTGGTIYNQKFKGRVTMTIDKSTSTVYMELSSLRSEDTAVYYCTRFRGIHYAMDYWGQGTTVTVSS
VL: EIVLTQSPATLSLSPGERATLSCRASESVDNYGLSFINWFQQKPGQAPRLLIYGTSNRGSGIPARFSGSGSGTDFTLTISSLEPEDFAVYFCQQSNEVPYTFGGGTKVEIK
notes: Fab
Consider B1, for which the “T ½” value in assay [1] is 3.05 h.

B2: P1AE1693_Fab (humanized clone 212, VH1G2a/VL1G2a) (Fab, V domains shown)
VH: QVQLVQSGAEVKKPGASVKVSCKASGYTLTDYNMDWVRQAPGKSLEWIGDIYPNTGGTIYNQKFKGRVTMTIDKSTSTVYMELSSLRSEDTAVYYCTRFRGIHYAMDYWGQGTTVTVSS
VL: EIVLTQSPATLSLSPGERATLSCRASESVDNYGLSFINWFQQKPGQPPRLLIYGTSNRGSGIPARFSGSGSGTDFTLTISSLEPEDFAVYFCQQSNEVPYTFGGGTKVEIK
notes: Fab
On to B2, for which the “T ½” value in assay [1] was found to be 2.68 h.

B3: P1AE1689_Fab (humanized clone 212, VH1G1a/VL1G1a) (Fab, V domains shown)
VH: QVQLVQSGAEVKKPGASVKVSCKASGYTLTDYNMDWVRQAPGQGLEWIGDIYPNTGGTIYNQKFKGRVTMTIDTSTSTVYMELSSLRSEDTAVYYCTRFRGIHYAMDYWGQGTTVTVSS
VL: EIVLTQSPATLSLSPGERATLSCRASESVDNYGLSFINWFQQKPGQAPRLLIYGTSNRGSGIPARFSGSGSGTDFTLTISSLEPEDFAVYFCQQSNEVPYTFGGGTKVEIK
notes: Fab
As to B3, the “T ½” value in assay [1] was determined as 4.57 h.

B4: P1AE2487, CD40 (P1AE0817) x FAP (4B9) (2+1) C-terminal crossfab fusion (bispecific antibody)
chain 1: EIVLTQSPGTLSLSPGERATLSCRASQSVTSSYLAWYQQKPGQAPRLLINVGSRRATGIPDRFSGSGSGTDFTLTISRLEPEDFAVYYCQQGIMLPPTFGQGTKVEIKSSASTKGPSVFPLAPSSKSTSGGTAALGCLVKDYFPEPVTVSWNSGALTSGVHTFPAVLQSSGLYSLSSVVTVPSSSLGTQTYICNVNHKPSNTKVDKKVEPKSC
chain 2: DIVMTQTPLSLSVTPGQPASISCRSSQSLVHSNGNTFLHWYLQKPGQSPQLLIYTVSNRFSGVPDRFSGSGSGTDFTLKISRVEAEDVGVYFCSQTTHVPWTFGGGTKVEIKRTVAAPSVFIFPPSDEQLKSGTASVVCLLNNFYPREAKVQWKVDNALQSGNSQESVTEQDSKDSTYSLSSTLTLSKADYEKHKVYACEVTHQGLSSPVTKSFNRGEC
chain 3: not shown
chain 4: QVQLVQSGAEVKKPGASVKVSCKASGYSFTGYYIHWVRQAPGQSLEWMGRVIPNAGGTSYNQKFKGRVTLTVDKSISTAYMELSRLRSDDTAVYYCAREGIYWWGQGTTVTVSSASTKGPSVFPLAPSSKSTSGGTAALGCLVKDYFPEPVTVSWNSGALTSGVHTFPAVLQSSGLYSLSSVVTVPSSSLGTQTYICNVNHKPSNTKVDKKVEPKSCDKTHTCPPCPAPEAAGGPSVFLFPPKPKDTLMISRTPEVTCVVVDVSHEDPEVKFNWYVDGVEVHNAKTKPREEQYNSTYRVVSVLTVLHQDWLNGKEYKCKVSNKALGAPIEKTISKAKGQPREPQVCTLPPSRDELTKNQVSLSCAVKGFYPSDIAVEWESNGQPENNYKTTPPVLDSDGSFFLVSKLTVDKSRWQQGNVFSCSVMHEALHNHYTQKSLSLSPG
By EC50 is commonly meant the concentration needed to bring the measured effect to its halfway point. B4: the midpoint of the response in assay [2], the EC50, lay at 3.7 nM.

B5: P1AE3378, CD40 (P1AE0817) x FAP (4B9) (3+1) with C-terminal crossfab fusion (bispecific antibody)
chain 1: EIVLTQSPGTLSLSPGERATLSCRASQSVTSSYLAWYQQKPGQAPRLLINVGSRRATGIPDRFSGSGSGTDFTLTISRLEPEDFAVYYCQQGIMLPPTFGQGTKVEIKSSASTKGPSVFPLAPSSKSTSGGTAALGCLVKDYFPEPVTVSWNSGALTSGVHTFPAVLQSSGLYSLSSVVTVPSSSLGTQTYICNVNHKPSNTKVDKKVEPKSC
chain 2: DIVMTQTPLSLSVTPGQPASISCRSSQSLVHSNGNTFLHWYLQKPGQSPQLLIYTVSNRFSGVPDRFSGSGSGTDFTLKISRVEAEDVGVYFCSQTTHVPWTFGGGTKVEIKRTVAAPSVFIFPPSDEQLKSGTASVVCLLNNFYPREAKVQWKVDNALQSGNSQESVTEQDSKDSTYSLSSTLTLSKADYEKHKVYACEVTHQGLSSPVTKSFNRGEC
chain 3: not shown
chain 4: QVQLVQSGAEVKKPGASVKVSCKASGYSFTGYYIHWVRQAPGQSLEWMGRVIPNAGGTSYNQKFKGRVTLTVDKSISTAYMELSRLRSDDTAVYYCAREGIYWWGQGTTVTVSSASTKGPSVFPLAPSSKSTSGGTAALGCLVKDYFPEPVTVSWNSGALTSGVHTFPAVLQSSGLYSLSSVVTVPSSSLGTQTYICNVNHKPSNTKVDKKVEPKSCDGGGGSGGGGSQVQLVQSGAEVKKPGASVKVSCKASGYSFTGYYIHWVRQAPGQSLEWMGRVIPNAGGTSYNQKFKGRVTLTVDKSISTAYMELSRLRSDDTAVYYCAREGIYWWGQGTTVTVSSASTKGPSVFPLAPSSKSTSGGTAALGCLVKDYFPEPVTVSWNSGALTSGVHTFPAVLQSSGLYSLSSVVTVPSSSLGTQTYICNVNHKPSNTKVDKKVEPKSCDKTHTCPPCPAPEAAGGPSVFLFPPKPKDTLMISRTPEVTCVVVDVSHEDPEVKFNWYVDGVEVHNAKTKPREEQYNSTYRVVSVLTVLHQDWLNGKEYKCKVSNKALGAPIEKTISKAKGQPREPQVCTLPPSRDELTKNQVSLSCAVKGFYPSDIAVEWESNGQPENNYKTTPPVLDSDGSFFLVSKLTVDKSRWQQGNVFSCSVMHEALHNHYTQKSLSLSPG
B5: the EC50 turned out to be 5.53 nM in assay [2] and 0.085 nM in assay [3].

B6: P1AE3377, CD40 (P1AE0817) x FAP (P1AE1689) (3+1) C-terminal crossfab fusion (bispecific antibody, human IgG1, kappa, L234A L235A)
light 1: QVQLVQSGAEVKKPGASVKVSCKASGYTLTDYNMDWVRQAPGQGLEWIGDIYPNTGGTIYNQKFKGRVTMTIDTSTSTVYMELSSLRSEDTAVYYCTRFRGIHYAMDYWGQGTTVTVSSASVAAPSVFIFPPSDEQLKSGTASVVCLLNNFYPREAKVQWKVDNALQSGNSQESVTEQDSKDSTYSLSSTLTLSKADYEKHKVYACEVTHQGLSSPVTKSFNRGEC
light 2: DIVMTQTPLSLSVTPGQPASISCRSSQSLVHSNGNTFLHWYLQKPGQSPQLLIYTVSNRFSGVPDRFSGSGSGTDFTLKISRVEAEDVGVYFCSQTTHVPWTFGGGTKVEIKRTVAAPSVFIFPPSDRKLKSGTASVVCLLNNFYPREAKVQWKVDNALQSGNSQESVTEQDSKDSTYSLSSTLTLSKADYEKHKVYACEVTHQGLSSPVTKSFNRGEC
heavy 1: not shown
heavy 2: QVQLVQSGAEVKKPGASVKVSCKASGYSFTGYYIHWVRQAPGQSLEWMGRVIPNAGGTSYNQKFKGRVTLTVDKSISTAYMELSRLRSDDTAVYYCAREGIYWWGQGTTVTVSSASTKGPSVFPLAPSSKSTSGGTAALGCLVEDYFPEPVTVSWNSGALTSGVHTFPAVLQSSGLYSLSSVVTVPSSSLGTQTYICNVNHKPSNTKVDEKVEPKSCDGGGGSGGGGSQVQLVQSGAEVKKPGASVKVSCKASGYSFTGYYIHWVRQAPGQSLEWMGRVIPNAGGTSYNQKFKGRVTLTVDKSISTAYMELSRLRSDDTAVYYCAREGIYWWGQGTTVTVSSASTKGPSVFPLAPSSKSTSGGTAALGCLVEDYFPEPVTVSWNSGALTSGVHTFPAVLQSSGLYSLSSVVTVPSSSLGTQTYICNVNHKPSNTKVDEKVEPKSCDKTHTCPPCPAPEAAGGPSVFLFPPKPKDTLMISRTPEVTCVVVDVSHEDPEVKFNWYVDGVEVHNAKTKPREEQYNSTYRVVSVLTVLHQDWLNGKEYKCKVSNKALGAPIEKTISKAKGQPREPQVCTLPPSRDELTKNQVSLSCAVKGFYPSDIAVEWESNGQPENNYKTTPPVLDSDGSFFLVSKLTVDKSRWQQGNVFSCSVMHEALHNHYTQKSLSLSPG
notes: Trivalent for CD40, monovalent for FAP; knob-into-hole, P329G LALA Fc; also called CD40 x FAP (212) 3+1 crossfab
For the molecule B6, the half-maximal effective concentration (EC50) turned out to be 4.94 nM in assay [2] and 0.038 nM in assay [3].

B7: P1AE1702_Fab (humanized clone 212, VH2G2a/VL2G2a) (Fab, V domains shown)
VH: EVQLLESGGGLVQPGGSLRLSCAASGYTLTDYNMDWVRQAPGKGLEWVGDIYPNTGGTIYNQKFKGRFTISIDKSKNTAYLQMNSLRAEDTAVYYCTRFRGIHYAMDYWGQGTTVTVSS
VL: DIQMTQSPSSLSASVGDRVTITCRASESVDNYGLSFINWFQQKPGQPPKLLIYGTSNRGSGVPSRFSGSGSGTDFTLTISSLQPEDFAMYFCQQSNEVPYTFGGGTKVEIK
notes: Fab
On to B7, for which, in assay [1], the “T ½” value worked out at 1.8 h.

B8: anti-FAP antibody 28H1 (antibody, V domains shown)
VH: EVQLLESGGGLVQPGGSLRLSCAASGFTFSSHAMSWVRQAPGKGLEWVSAIWASGEQYYADSVKGRFTISRDNSKNTLYLQMNSLRAEDTAVYYCAKGWLGNFDYWGQGTLVTVSS
VL: EIVLTQSPGTLSLSPGERATLSCRASQSVSRSYLAWYQQKPGQAPRLLIIGASTRATGIPDRFSGSGSGTDFTLTISRLEPEDFAVYYCQQGQVIPPTFGQGTKVEIK
notes: also called FAP clone 28H1; FAP (28H1)
Consider B8, for which, in assay [4], the binding result is on record as “binds”.

B9: 4B9_Fab (Fab, V domains shown)
VH: EVQLLESGGGLVQPGGSLRLSCAASGFTFSSYAMSWVRQAPGKGLEWVSAIIGSGASTYYADSVKGRFTISRDNSKNTLYLQMNSLRAEDTAVYYCAKGWFGGFNYWGQGTLVTVSS
VL: EIVLTQSPGTLSLSPGERATLSCRASQSVTSSYLAWYQQKPGQAPRLLINVGSRRATGIPDRFSGSGSGTDFTLTISRLEPEDFAVYYCQQGIMLPPTFGQGTKVEIK
notes: Fab
What is called Kd is the concentration at which binding is half-saturated. What is called koff is the rate constant with which the complex falls apart. Broadly, the kon is the second-order rate constant of association. As for B9, in assay [5], the Kd was 0.43 nM, the dissociation rate constant (koff) turned out to be 0.00078 s⁻¹ and the on-rate constant (kon) was found to be 1.82e+06 M⁻¹ s⁻¹. For the same molecule, in assay [1], the equilibrium dissociation constant (Kd) is 0.279 nM, the “T ½” value came out at 0.917 h, the koff amounted to 0.000208 s⁻¹ and the on-rate constant (kon) is 747000 M⁻¹ s⁻¹.

(Values after patent US20210292426A1 (Hoffmann-La Roche, published 2021).)
